Test results taken from paper PMC11667970, “Mycobacterium tuberculosis Mce3R TetR-like Repressor Forms an Asymmetric Four-Helix Bundle and Binds a Nonpalindrome Sequence†” (ACS Chemical Biology, 2024).
Several values for one entry are separate records, joined by “and”; a condition that tells them apart may be missing. Equal entries are not always repeated.

Tests used:
[1] = target: the molecule itself; test: SEC; M1 on Superdex 200 HiLoad 16:60, Buffer E (20 mM Tris-HCl pH 7.5, 0.2 M NaCl); two peaks (Figure S1B)
SEC = target: the molecule itself; test: SEC
Mce3R R53A = target: T1, Mce3R R53A (Mycobacterium tuberculosis H37Rv, UniProt P95251 1-406, R53A); test: EMSA; 0-128 nM; high-affinity binding lost; details: protein: recombinant; tags: MBP-His6 N-terminal, removed with TEV (same protocol as WT); chain copies: 2; label: 5'-Cy3 (forward strand); blunt
T1 sequence: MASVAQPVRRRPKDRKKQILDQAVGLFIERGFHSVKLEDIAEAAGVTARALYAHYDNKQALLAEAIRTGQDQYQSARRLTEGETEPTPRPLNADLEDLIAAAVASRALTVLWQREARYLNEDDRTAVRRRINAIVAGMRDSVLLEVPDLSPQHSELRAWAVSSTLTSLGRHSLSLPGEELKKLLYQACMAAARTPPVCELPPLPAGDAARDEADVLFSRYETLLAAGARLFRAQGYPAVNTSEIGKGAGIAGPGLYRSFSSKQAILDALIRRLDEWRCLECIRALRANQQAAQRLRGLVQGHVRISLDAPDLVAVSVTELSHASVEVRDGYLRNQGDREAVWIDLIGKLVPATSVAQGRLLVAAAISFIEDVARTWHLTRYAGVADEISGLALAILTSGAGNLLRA

B1: M1, N-terminal TFR segment of Mce3R (amino acids 13-193) (domain or fragment)
chain: KDRKKQILDQAVGLFIERGFHSVKLEDIAEAAGVTARALYRHYDNKQALLAEAIRTGQDQYQSARRLTEGETEPTPRPLNADLEDLIAAAVASRALTVLWQREARYLNEDDRTAVRRRINAIVAGMRDSVLLEVPDLSPQHSELRAWAVSSTLTSLGRHSLSLPGEELKKLLYQACMAAAR
notes: Mce3R (Rv1963c), Mycobacterium tuberculosis H37Rv, amino acids 13-193 (M1); calculated monomer MW 20.2 kDa; also called M1 homotetramer; M1 homodimer
stoichiometry N [1]: 4 and 2

B2: Mce3R R53A variant (natural protein)
chain: MASVAQPVRRRPKDRKKQILDQAVGLFIERGFHSVKLEDIAEAAGVTARALYAHYDNKQALLAEAIRTGQDQYQSARRLTEGETEPTPRPLNADLEDLIAAAVASRALTVLWQREARYLNEDDRTAVRRRINAIVAGMRDSVLLEVPDLSPQHSELRAWAVSSTLTSLGRHSLSLPGEELKKLLYQACMAAARTPPVCELPPLPAGDAARDEADVLFSRYETLLAAGARLFRAQGYPAVNTSEIGKGAGIAGPGLYRSFSSKQAILDALIRRLDEWRCLECIRALRANQQAAQRLRGLVQGHVRISLDAPDLVAVSVTELSHASVEVRDGYLRNQGDREAVWIDLIGKLVPATSVAQGRLLVAAAISFIEDVARTWHLTRYAGVADEISGLALAILTSGAGNLLRA
notes: not shown: MBP, N-terminal, cleaved; His6, N-terminal, cleaved
stoichiometry N (SEC): 2 and 4

B3: Probe A (dsDNA)
DNA 1: GCCCCGCGCTATAGGATACTAGCAAGATACATCATAGCCAATATATGCCAGTTTGCATTGCTATTTACCGATCAGTTGTCCAAGCAATCGCGTATTGGCTATGGACATCAGCGGTTCTGCCGC
DNA 2: GCGGCAGAACCGCTGATGTCCATAGCCAATACGCGATTGCTTGGACAACTGATCGGTAAATAGCAATGCAAACTGGCATATATTGGCTATGATGTATCTTGCTAGTATCCTATAGCGCGGGGC
binding result (Mce3R R53A): no binding
